Results taken from patent publication US20100204147A1, “Methods For Delivering Thymosin Beta 4, Analogues, Isoforms and Other Derivatives” (REGENERX BIOPHARMACEUTICALS, INC., priority 2003, published 2010).

How the values were obtained:
[1] = target: T1, Aα221-391 sub-fragment (Homo sapiens, UniProt P02671); experiment: ELISA of incorporation into immobilized Aα221-391 sub-fragment; type: biochemical
T1 construct: (residues Aα221-391 and Aα392-610, respectively); made in house; host or cells: E. coli, pET20b expression vector
T1 sequence (P02671 240-410): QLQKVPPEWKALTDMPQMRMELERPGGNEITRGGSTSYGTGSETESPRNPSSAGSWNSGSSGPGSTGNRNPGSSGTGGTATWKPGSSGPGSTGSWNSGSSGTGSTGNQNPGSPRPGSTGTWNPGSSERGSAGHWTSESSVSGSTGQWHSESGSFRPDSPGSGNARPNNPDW
Description: (§1) The interaction between thymosin β4 and fibrin(ogen) and its fragments in the presence or absence of FXIIIa was studies by ELISA using plastic microliter plates. Wells of microliter plates were coated overnight at […] with fibrinogen and fibrin at 10 μg/mL or with the recombinant fragments of 20 μg/ml, all in 0.1 M NaHCO3 buffer, pH 8.3. Fibrin was made by addition to the wells of a mixture containing 10 μg/mL fibrinogen 1 NIH u/ml thrombin and 400 u/ml aprotinin, followed by overnight incubation at +4° C. The wells were then blocked by incubation with Super Blocker (Pierce) at 37° C. for 1 h. Following washing with TBS containing 0.05% Tween-20 (TBS-Tween), the indicated concentrations of thymosin β4, FXIII, FXIIIa(Thr) and FXIIIa(Ca) were added to the wells and incubated for 2-2.5 h at 37° C. Bound (incorporated) thymosin β4 was detected by the reaction with rabbit anti-thymosin β4 serum and peroxidase-conjugated anti-rabbit IgG. A TMB Microwell Peroxidase Substrase was added to the wells, and the incorporated thymosin β4 was measured spectrophotometrically at 450 nm.

[2] = target: T2, fibrinogen (Homo sapiens, UniProt P02671); experiment: Solid-phase binding assay (ELISA), immobilized fibrinogen
T2 construct: purchased Enzyme Research Laboratories (South Bend, Ind.)
T2 sequence (P02671 20-644 isoform P02671-2 limits assumed): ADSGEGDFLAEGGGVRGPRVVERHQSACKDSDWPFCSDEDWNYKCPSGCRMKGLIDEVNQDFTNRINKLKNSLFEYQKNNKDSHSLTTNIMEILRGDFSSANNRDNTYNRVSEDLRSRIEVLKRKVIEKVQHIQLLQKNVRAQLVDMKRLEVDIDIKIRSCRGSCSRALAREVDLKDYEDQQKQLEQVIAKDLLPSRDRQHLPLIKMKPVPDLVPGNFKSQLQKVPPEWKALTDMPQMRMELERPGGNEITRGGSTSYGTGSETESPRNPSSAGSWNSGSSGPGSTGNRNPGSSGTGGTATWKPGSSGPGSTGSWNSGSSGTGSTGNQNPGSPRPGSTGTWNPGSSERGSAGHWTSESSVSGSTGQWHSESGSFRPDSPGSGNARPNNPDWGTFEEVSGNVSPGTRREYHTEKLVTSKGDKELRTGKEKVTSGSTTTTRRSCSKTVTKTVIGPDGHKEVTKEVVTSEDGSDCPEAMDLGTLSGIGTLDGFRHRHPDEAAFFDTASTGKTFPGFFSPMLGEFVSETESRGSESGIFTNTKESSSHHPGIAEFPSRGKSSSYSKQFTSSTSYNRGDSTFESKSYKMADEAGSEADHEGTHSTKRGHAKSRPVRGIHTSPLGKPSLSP
T2 sequence (P02675 31-491 partner): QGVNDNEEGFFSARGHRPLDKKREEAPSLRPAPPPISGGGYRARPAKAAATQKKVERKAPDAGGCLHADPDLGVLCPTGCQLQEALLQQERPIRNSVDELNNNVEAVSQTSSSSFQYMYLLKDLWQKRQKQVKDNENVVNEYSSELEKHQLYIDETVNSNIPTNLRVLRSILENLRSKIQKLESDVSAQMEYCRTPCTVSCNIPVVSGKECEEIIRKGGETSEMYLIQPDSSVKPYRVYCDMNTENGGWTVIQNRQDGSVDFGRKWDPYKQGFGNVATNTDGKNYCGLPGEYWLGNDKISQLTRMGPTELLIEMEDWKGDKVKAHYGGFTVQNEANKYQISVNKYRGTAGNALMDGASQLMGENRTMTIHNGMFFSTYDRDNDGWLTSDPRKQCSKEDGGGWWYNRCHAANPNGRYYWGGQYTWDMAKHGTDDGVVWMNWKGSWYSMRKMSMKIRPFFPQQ
T2 sequence (P02679 27-437 isoform P02679-2 partner limits assumed): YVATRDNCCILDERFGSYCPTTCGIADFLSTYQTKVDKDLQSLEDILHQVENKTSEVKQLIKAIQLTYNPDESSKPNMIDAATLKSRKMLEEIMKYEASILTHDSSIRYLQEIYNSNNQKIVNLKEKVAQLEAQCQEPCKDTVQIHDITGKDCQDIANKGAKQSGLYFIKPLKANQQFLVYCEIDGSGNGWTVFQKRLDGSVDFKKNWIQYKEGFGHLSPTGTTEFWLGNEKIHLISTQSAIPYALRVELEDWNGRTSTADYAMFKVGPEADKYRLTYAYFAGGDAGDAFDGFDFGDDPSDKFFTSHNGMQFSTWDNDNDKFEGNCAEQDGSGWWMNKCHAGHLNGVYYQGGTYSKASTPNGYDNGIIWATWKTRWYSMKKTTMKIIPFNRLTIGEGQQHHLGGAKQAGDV
Description: as §1

thymosin β4
non-covalent interaction with Aα221-391 sub-fragment (ELISA) ([1]; non-activated factor XIII or without it): no significant non-covalent interaction | incorporation into immobilized Aα221-391 (ELISA) ([1]; presence of factor XIIIa): very low | factor XIIIa-mediated incorporation into immobilized fibrinogen (ELISA signal) ([2]; factor XIII activated by CaCl2): the signal substantially increased | non-covalent interaction with immobilized fibrinogen (ELISA signal) ([2]; thymosin β4 150 μg/mL (30 μm), absence of factor XIII or non-activated factor XIII): no significant non-covalent interaction
